Measurements taken from PMC12687561 (2025).

Legend:
[1] = target: T1, HHV-6B Putative OX-2 membrane glycoprotein homolog (U85) peptide on HLA-DRA*01:01 / HLA-DRB1*03:01 (human); assay: multimer staining
T1 peptide: KINNLDVDSKLYFHIKH

[2] = target: T2, HHV-6B Large structural phosphoprotein (U11) peptide on HLA-DRA*01:01 / HLA-DRB1*03:01 (human); assay: multimer staining
T2 peptide: SLPSISIDTKRPSADL

B1: U85.2 (TCR)
alpha TRAV13-1 TRAJ29 CDR3: CAATNSGNTPLVF
beta TRBV20-1 TRBJ1-5 CDR3: CSARRGGGPQHF
binding result [1]: recognises

B2: U11.1 (TCR)
alpha TRAV12-1 TRAJ49 CDR3: CVVNIFTGNQFYF
beta TRBV19 TRBJ1-4 CDR3: CASSFRGGEKLFF
binding result [2]: recognises

B3: U85.1 (TCR)
alpha TRAV13-1 TRAJ29 CDR3: CAASNSGNTPLVF
beta TRBV20-1 TRBJ1-6 CDR3: CGNRVGNSPLHF
binding result [1]: recognises
